The text below walks through data of US6319685A (Unigene Laboratories, Inc., priority 1987, dated 2001).

Series [1] deals with T1, alpha-amidating enzyme (Rattus norvegicus, UniProt P14925).
T1 sequence (P14925 36-976): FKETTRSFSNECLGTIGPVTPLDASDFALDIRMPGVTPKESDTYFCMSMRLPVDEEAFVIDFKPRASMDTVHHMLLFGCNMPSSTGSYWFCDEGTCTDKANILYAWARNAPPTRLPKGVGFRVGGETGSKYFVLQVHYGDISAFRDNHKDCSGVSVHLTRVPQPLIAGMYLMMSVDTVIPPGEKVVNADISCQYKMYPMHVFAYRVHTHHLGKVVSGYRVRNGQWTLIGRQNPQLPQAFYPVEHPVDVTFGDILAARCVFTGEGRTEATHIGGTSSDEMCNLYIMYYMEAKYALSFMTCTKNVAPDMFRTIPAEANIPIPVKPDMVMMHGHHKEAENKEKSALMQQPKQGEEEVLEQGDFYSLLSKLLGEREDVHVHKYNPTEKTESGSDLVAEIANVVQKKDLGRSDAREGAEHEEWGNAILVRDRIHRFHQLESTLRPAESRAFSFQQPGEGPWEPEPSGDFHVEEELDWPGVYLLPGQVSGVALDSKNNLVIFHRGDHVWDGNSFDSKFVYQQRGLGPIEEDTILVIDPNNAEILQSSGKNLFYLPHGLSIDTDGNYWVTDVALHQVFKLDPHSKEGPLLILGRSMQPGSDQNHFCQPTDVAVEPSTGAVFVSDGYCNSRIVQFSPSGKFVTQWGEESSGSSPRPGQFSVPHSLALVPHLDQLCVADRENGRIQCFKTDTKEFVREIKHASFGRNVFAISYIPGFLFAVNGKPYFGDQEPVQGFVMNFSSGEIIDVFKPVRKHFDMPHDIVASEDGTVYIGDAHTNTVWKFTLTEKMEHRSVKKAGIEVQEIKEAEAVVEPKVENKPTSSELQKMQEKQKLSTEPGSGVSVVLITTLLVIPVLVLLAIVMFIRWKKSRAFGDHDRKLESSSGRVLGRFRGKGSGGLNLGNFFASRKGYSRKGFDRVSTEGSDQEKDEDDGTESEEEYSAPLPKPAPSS
As to the kind of experiment: co-factor requirement of alpha-amidating enzyme for maximal activity. Format: biochemical. The following applies: in vitro, with peptide substrate, oxygen and L-ascorbic acid.

For series [2], the target named is T1, alpha-amidating enzyme. Kind of series: comparison of assay systems / kinetic analysis of amidation of dansyl-Tyr-Val-Gly, D-Tyr-Val-Gly and 125I-D-Tyr-Val-Gly. Format: biochemical. The procedure: (§1) I. Monodansyl L-Tyr-Val-Gly
(§2) The concentration of enzyme used in all experiments was left constant except where noted.
(§3) The reaction mixture for the conversion of the monodansyl substrate contained:
(§4) 5 μl of 100 ug/mL bovine pancreatic catalase
(§5) 5 μl containing 2 nmoles of substrate
(§6) The samples were prepared in duplicate and incubated at 37° C. for 10, 20 and 30 minutes time periods. The enzymatic reaction was halted by the addition of 10 ul 500 mM EDTA. Substrate and product were separated by RP HPLC using an Hewlett Packard-1090 liquid chromatography system, and quantitation was achieved using a HP-3392 integrator.
(§7) D-Tyr-Val-Gly and D-Tyr-Val-NH2 were iodinated using iodobeads from Pierce Chemical Company. The radiolabeied substrate and product were used to calibrate a sulfyl-propyl cation-exchange column. ^125 I D-Tyr-Val-Gly was added to 650 uM D-Tyr-Val-Gly and used as the substrate. The reaction mixture for the conversion of monodansyl substrate contained:
(§8) Samples were incubated for 10, 20, 30 minutes at 37° C. The reaction was stopped by addition of 500 mM EDTA. […] The conversion of radiolabeled substrate to product was linear with respect to time.
The reaction conditions used for the amidation of D-Tyr-Val-Gly are identical to those described for the dansyl and iodinated substrates. Substrate concentration in the reaction mixture was 650 uM. Separation of substrate and product is achieved by gradient elution on RP-HPLC using a HP-1090 liquid chromatography system. The column effluents were monitored at 280 nm. The level of sensitivity for this assay is much lower than that for either dansyl or iodinated substrates.
Furthermore, a somewhat more rigorous kinetic analysis has also been employed to compare the dansyl-Tyr-Val-Gly (Applicants') assay to the D-Tyr-Val-Gly (prior art) assay.

Substrate in series [3]: CC(C)[C@H](NC(=O)[C@H](N)Cc1ccc(O)cc1)C(=O)NCC(=O)O
The description is as above. It is filed as biochemical, rat. The note with it: 37.0 °C. The procedure:
as §1, §2, §3, §4, §5, §6, §7, §8
The reaction conditions used for the amidation of D-Tyr-Val-Gly are identical to those described for the dansyl and iodinated substrates. Substrate concentration in the reaction mixture was 650 uM. […] The column effluents were monitored at 280 nm. […]

A short description of series [4]: specific alpha-amidating activity, conversion of Dansyl-D-Tyr-Val-Gly to Dansyl-D-Tyr-Val-CONH2. It is filed as biochemical. The procedure:
These and other objects will become apparent from a thorough reading of the present disclosure. […] All specific activity units set forth herein are based upon the conversion of Dansyl-D-Try-Val-Gly-COOH to Dansyl-D-Tyr-Val-CONH2. One mU is defined as the amount of activity needed to convert one nanomole (nmole) of Dansyl-D-Tyr-Val-Gly-COOH to one nmole of Dansyl-D-Tyr-Val-CONH2 per minute at 37° C. and pH 7.0 in the presence of ascorbate ions at a concentration of 3 mM (based on total reaction mixture including enzyme, substrate, co-factors, etc.), molecular oxygen in a molar excess over substrate and a concentration of cupric ions effective to maximize activity (usually about 2 μM depending on the state of purity of the enzyme).
Each purification step can be monitored for both protein content and the level of alpha-amidation activity. This information is used to calculate the specific activity of the enzyme which serves as an indicator of the relative purity of the enzyme.
Sephacryl S-300 (Pharmacia) was equilibrated in 50 mM Tris HCl pH 7.0 and poured into a K 50/100 column (Pharmacia) according to the manufacturer's instructions. The bed volume of the column was approximately 1.3 liters. The Sample was loaded onto the column in a volume representing approximately 3 percent of the bed volume of the column. Proteins were eluted from the column in 50 mM Tris HCl pH 7.0 at a flow rate of approximately 2 ml per minute.
as §3
The samples were prepared in duplicate and incubated at 37° C. for 10, 20 and 30 minutes time periods. The enzymatic reaction was halted by the addition of 10 ul 500 mM EDTA.

Series [5] in a line: pH optimum of alpha-amidating enzyme. Format: biochemical. The following applies: CA-77 cell tissue culture media enzyme. The procedure:
2. The optimum pH for the activity of the enzyme was determined to be pH 5.0-5.5 using N dansyl Tyr-Val-Gly as the substrate (FIG. XVI). However, due to the enhanced stability of the enzyme at neutral pH, it may be beneficial to carry out the amidation reaction at such pH.

Residues, ends and D or L forms follow the SMILES beside them.

Take catalase: the “effect of addition on enzymatic activity” value in series [1] is on record as “substantially increased”.

With `O=S(=O)([O-])[O-].[Cu+2]` [copper sulfate], the “effect of addition on enzymatic activity” value in series [1] is given as “substantially increased”.

With `CC(C)[C@H](NC(=O)[C@H](N)Cc1ccc(O)cc1)C(=O)NCC(=O)O` [D-Tyr-Val-Gly] (HELM PEPTIDE1{[dY].V.G}$$$$V2.0), the “maximal velocity relative to dansyl-Tyr-Val-Gly” value in series [2] (comparison of Vmax) is on record as “approximately 1.48 times”.

“^125 I-D-Tyr-Val-Gly [125I-D-Tyr-Val-Gly]”: the “fractional conversion relative to dansyl-Tyr-Val-Gly” value in series [2] (each time point (10, 20, 30 minutes), 37° C.) was “approximately 1.55 times”.

B1: alpha-amidating enzyme (Rattus norvegicus) (protein)
chain: T1 sequence (P14925 36-976)
Regarding B1, in series [3], the Km (usually the substrate concentration at which the rate is half of its maximum) is 37 µM and the Vmax is given as 31 pmol product/min/μl.

B2: peak eluting at 190 mM NaCl: enzyme activity peak from Mono Q HR 5/5 at pH 8.0 eluting at 190 mM NaCl (protein, UniProt P14925 36-976, looked up)
Peptidylglycine …: T1 sequence (P14925 36-976)
modifications: Mono Q fraction
With B2, in series [4] (after Mono Q chromatography at pH 8.0, rat MTC tumor), the specific alpha-amidating activity result is on record as “at least 80 mU/mg protein”.

B3: Peak IV enzyme (CA-77): higher molecular weight form from CA-77 medium, corresponds to peak III derived from MTC tumors (protein, UniProt P14925 36-976, looked up)
Peptidylglycine …: T1 sequence (P14925 36-976)
modifications: higher molecular weight form
In the case of B3, the specific activity result in series [4] (CA-77 media, purified enzyme, pH 7.0) was “approximately 1500 mU/mg protein”. Also, the pH optimum in series [5] was 5.0-5.5.
